Test results taken from US11021755B2, “Compositions and methods for identifying anti cancer, anti-metastatic and anti-stress agents” (THE REGENTS OF THE UNIVERSITY OF CALIFORNIA, priority 2015, dated 2021).
Peptide text beside a SMILES is read from it. * marks the point of attachment. Cbz = O=C(OCc1ccccc1)*

Tests used:
[1] = system: Slug protein and pY416 SFK in MCF10A cells; experiment: Immunoblots of MCF10A cells stimulated with TGF-b2 and treated with inhibitors or antibody; assay type: cell-based, human; settings: for Slug protein levels: 10 mM MG132, 5 hr prior to lysis
Procedure: FIGS. 21F-G illustrate Immunoblots of MCF10A cells stimulated with TGF-b2 or vehicle control and probed for the indicated proteins. FIG. 21F: Cells were transfected with control (Ctrl) or b3 siRNA and additionally treated with vehicle or proteasome inhibitor (MG132) for 5 hr prior to lysis. FIG. 21G: Cells were treated with 100 nM Src inhibitor (dasatinib) for the indicated length of time prior to lysis. FIG. 21F and FIG. 21G: Data shown are representative of three independent experiments.
Indeed, Slug protein levels are highly regulated through degradation by the proteasome (Kim et al. 2012; Wu et al., 2012). […] Thus, it appears that TGF-β2-stimulated expression of a αvβ3 mediates SFK activation resulting in enhanced Slug protein stability.
(§1) For experiments with MCF10A and HMECs, TGF-b2 stimulations were performed with 5 ng/ml TGF-b2 (PeproTech) or 0.1% BSA/PBS (vehicle) for 48 hr prior to lysis. In some experiments, […] of the anti-αvβ3 function-blocking antibody LM609 (Millipore) was added to cells at the same time as TGF-b2 or vehicle addition. For the proteasome inhibitor experiments, 10 mM MG132 (Sigma-Aldrich) or DMSO (vehicle) was added to transfected MCF10A cells 5 hr prior to lysis. Treatment of MCF10A cells with the SFK inhibitor dasatinib (ChemieTek) or DMSO (vehicle) was performed with 100 nM dasatinib for the indicated times prior to harvesting lysates.

[2] = system: ITGB3 promoter in HCC827 cells; settings: resuming erlotinib treatment after erlotinib holiday
[3] = system: MaSC/basal and luminal colonies from virgin mammary cells; experiment: Mammary colony formation on irradiated MEFs with growth factors; assay type: cell-based, mouse; settings: for total colony number: virgin mammary cells on irradiated MEFs
Procedure: This effect was reduced in mammary cells from β3KO mice (FIG. 20H), similar to our results from pregnant b3KO mice (FIG. 19C).
For colony formation on irradiated MEFs, 100,000 MEFs were seeded into 6-well dishes for 48 hr prior to adding 40,000 cells from digested mammary glands and grown in complete Dulbecco's modified Eagle's medium (DMEM). Colonies formed over 5-6 days before fixing and staining with either 0.1% crystal violet/20% methanol/PBS or 2% paraformaldehyde/PBS for immunofluorescent staining and counting colonies. For Matrigel colonies, 5,000 fluorescence-activated cell sorting (FACS) mammary gland cells were suspended in […] growth factor-reduced Matrigel (BD PharMingen) and grown 14 days in serum-free mammary epithelial cell medium-basal medium (Cambrex) supplemented with B27 supplement, 20 ng/ml epidermal growth factor, 20 ng/ml […] fibroblast growth factor, […], 100 U/ml penicillin, and […] streptomycin. Total colonies per well were counted from each of the four replicates per experiment.
(§2) Cells from digested mammary glands were seeded at 40,000 cells per well onto MEFs (for colony-formation assays) or 8-well chamber slides (Lab-Tek) coated with 2% Matrigel/DMEM. At the time of seeding, cells were suspended in complete DMEM supplemented with vehicle (0.1% BSA/PBS), RANKL (50 ng/ml), TGF-b1 (5 ng/ml), or TGF-b2 (5 ng/ml) (PeproTech). Cells were fixed with 2% paraformaldehyde/PBS after 48 hr (chamber slides) or 5 days (colonies) for immunofluorescent staining.

[4] = system: β3 expression in MaSCs/basal cells; experiment: β3 expression in K14+SMA+ cells from virgin WT mammary cells stimulated with growth factors (immunofluorescence); assay type: cell-based, mouse; settings: cells from virgin WT mice; relative to vehicle-treated cells; TGF-b2 5 ng/ml, TGF-b1 5 ng/ml, RANKL 50 ng/ml, 48 hr
Text: (§3) To examine the ability of these factors to increase β3 expression, we stimulated cells from virgin WT mice and measured β3 expression in MaSCs/basal cells, defined by expression of K14 and SMA.
FIG. 20A illustrates representative immunofluorescent images of β3 expression in K14+SMA+ cells (arrows) from pooled virgin WT mammary cells stimulated with the indicated growth factors. Nuclei are stained blue in all panels. Scale bars, […]. Data shown are representative of three independent experiments.
as §2

[5] = system: β3 mRNA in CD29hi MaSCs/basal cells and CD29lo luminal cells; experiment: qPCR of β3 mRNA in vehicle versus TGF-β2-stimulated CD29hi and CD29lo cells; assay type: cell-based, mouse
Text: as §3
FIG. 20B and FIG. 20C graphically illustrate qPCR analysis comparing the relative levels of β3 mRNA in vehicle versus TGF-β2-stimulated CD29hi (FIG. 20B) and CD29lo (FIG. 20C) cells from WT virgin mice. n=2 independent experiments (pooled samples).
For FIG. 20B, FIG. 20C, and FIG. 20F: each sample was run in triplicate, and 18S rRNA (FIG. 20B and FIG. 20C) or b-actin (FIG. 20F) was used as loading controls.

[6] = system: nuclear Slug in K14+SMA+ MaSCs/basal cells; experiment: Slug expression in K14+SMA+ mammary cells stimulated with TGF-β2; assay type: cell-based, mouse
Text: Slug was recently characterized as a determinant of the MaSC fate in the virgin mammary gland (Guo et al., 2012) and is expressed during early to midpregnancy but is negatively regulated by Elf5 during late stage pregnancy/lactation, allowing for alveolar maturation (Chakrabarti et al., 2012). Therefore, we considered whether β3 was required for TGF-β2-mediated Slug expression in MaSCs/basal cells.
To determine the potential mechanism by which αvβ3 regulates Slug, we considered whether αvβ3 signaling may be required by assessing whether the b3DC mutant affects Slug expression. […] The β3DC mutant has previously been characterized as defective in recruiting and activating Src family kinases (SFKs) (Ablooglu et al., 2009; Arias-Salgado et al., 2003; Desgrosellier et al., 2009).
FIG. 21B graphically illustrates quantitation of the percentage of Slug+K14+SMA+ cells. p=0.0439 (vehicle versus TGF-b2 inWT cells) and p=0.0342 (WT versus b3KO cells stimulated with TGF-b2). For FIG. 21A and FIG. 21B: WT, n=3, b3KO, n=3.
FIG. 21E graphically illustrates quantitation of the percentage of Slug-expressing K14+SMA+ cells from virgin WT and b3DC mammary cells stimulated with vehicle or TGF-b2. WT, n=2, b3DC, n=2. p=0.029 (vehicle versus TGF-b2 in WT cells) and p=0.032 (WT versus b3DC cells stimulated with TGF-b2).
as §2

[7] = system: β3 promoter; experiment: β3 promoter luciferase reporter in MCF10A cells; assay type: cell-based, human; settings: reporter with proximal 1,300 bp of the β3 promoter
Text: FIG. 20E graphically illustrates a Histogram displaying the relative luciferase activity in MCF10A cells transfected with an empty vector (Ctrl) or a luciferase reporter plasmid containing the proximal region of the β3 promoter (β3 prom-Luc) and stimulated with vehicle or TGF-β2. n=3 independent experiments. p=0.043.

[8] = system: β3 expression in human mammary epithelial cells (HMECs), MCF10As; experiment: Immunoblot for β3 in MCF10As and HMECs stimulated with TGF-b2; assay type: cell-based; settings: HMECs including MCF10As; 5 ng/ml TGF-b2, 48 hr
Procedure: FIG. 20D illustrates an image of an Immunoblot for β3 and b-actin (loading control) in MCF10As and HMECs stimulated with TGF-b2 or vehicle control. Data shown are representative of three independent experiments.
as §1

[9] = virgin WT mammary cells on irradiated MEFs, compared to vehicle

Molecule: CC(C)C[C@@H](C=O)NC(=O)[C@H](CC(C)C)NC(=O)[C@H](CC(C)C)NC(=O)OCc1ccccc1 [MG132] (Cbz-Leu-Leu-Leu-aldehyde)
- Slug protein levels ([1]; b3 knockdown MCF10A cells): restore Slug protein levels to normal
- Slug protein levels ([1]; control MCF10A cells): little effect

Molecule: C#Cc1cccc(Nc2ncnc3cc(OCCOC)c(OCCOC)cc23)c1 [erlotinib]
- expression of β3 and stem cell genes OCT4 and Nanog [2]: re-expression

Molecule: TGF-β1: transforming growth factor β (TGF-β) family member (PeproTech)
- total colony number [3]: severe growth inhibitory effect
- β3 expression in MaSCs/basal cells (K14 and SMA expressing) [4]: not

B1: TGF-β2: Transforming growth factor β2, growth factor released during pregnancy (PeproTech) (protein, UniProt P61812 303-414, looked up)
Transforming growth factor …: ALDAAYCFRNVQDNCCLRPLYIDFKRDLGWKWIHEPKGYNANFCAGACPYLWSSDTQHSRVLSLYNTINPEASASPCCVSQDLEPLTILYYIGKTPKIEQLSNMIVKSCKCS
- β3 mRNA expression ([5]; CD29hi MaSCs/basal cells from WT virgin mice): drive β3 mRNA expression
- β3 mRNA expression ([5]; CD29lo luminal cells from the same mice): little effect
- frequency of bipotent, MaSC-like colonies [3, 9]: increased
- luminal colonies [3, 9]: reciprocal decrease
- total colony number [3]: did not affect
- Slug expression in K14+SMA+ cells ([6]; cells from β3DC knockin mice): no increase
- nuclear Slug expression in K14+SMA+ cells ([6]; virgin WT mammary cells, compared to vehicle control): induced nuclear Slug expression
- Slug expression in K14+SMA+ cells ([6]; β3KO cells): failed to increase Slug
- β3 promoter activity (relative luciferase activity) [7]: directly activating the β3 promoter
- expression of EMT markers such as Slug, E-cadherin, and Vimentin ([1]; MCF10A cells, TGF-β2 stimulation): drives changes
- β3 expression (immunoblot) [8]: potent driver
- β3 expression in MaSCs/basal cells (K14 and SMA expressing) [4]: stimulated β3 expression

B2: RANKL: receptor activator of nuclear factor kB ligand (protein, UniProt O14788 140-317, looked up)
Tumor necrosis factor ligand …: IRAEKAMVDGSWLDLAKRSKLEAQPFAHLTINATDIPSGSHKVSLSSWYHDRGWAKISNMTFSNGKLIVNQDGFYYLYANICFRHHETSGDLATEYLQLMVYVTKTSIKIPSSHTLMKGGSTKYWSGNSEFHFYSINVGGFFKLRSGEEISIEVSNPSLLDPDQDATYFGAFKVRDID
- total colony number [3]: potent driver of colony formation
- β3 expression in MaSCs/basal cells (K14 and SMA expressing) [4]: not
